From PMC12116771

Tests used:
[1] = system: Scd6 (His-Scd6-FLAG, unmethylated) (Saccharomyces cerevisiae); experiment: EMSA; conditions: EMSA: 10 mM Tris pH 8, 50 mM NaCl, 0.05% NP-40, 6% glycerol, 1 mM DTT, 2 ug/ml BSA, 0.5 ug/ml tRNA, 30 C 30 min; 2.5% agarose, 1x MOPS, EtBr
[2] = system: Scd6 (His-Scd6-FLAG), arginine-methylated in vitro by Hmt1 (Saccharomyces cerevisiae); experiment: EMSA; conditions: EMSA: 10 mM Tris pH 8, 50 mM NaCl, 0.05% NP-40, 6% glycerol, 1 mM DTT, 2 ug/ml BSA, 0.5 ug/ml tRNA, 30 C 30 min; 2.5% agarose, 1x MOPS, EtBr

SRS2 5'UTR 200-mer RNA
Kd [1]: 2860 nM | Kd [2]: 2700 nM
